# Biological target: Bh-RNase HC (RNase H1 catalytic domain) (Bacillus halodurans, UniProt Q9KEI9 59-196)
# Assay: X-ray crystallography
# Chain of Bh-RNase HC (RNase H1 catalytic domain) (Q9KEI9 59-196): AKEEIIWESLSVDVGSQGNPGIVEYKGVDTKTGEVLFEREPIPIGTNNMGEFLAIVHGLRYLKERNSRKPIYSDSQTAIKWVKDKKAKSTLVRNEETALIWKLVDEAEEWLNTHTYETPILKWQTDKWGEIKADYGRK
binder,measurement,value
"RNA/DNA hybrid 6-mer (DNA:RNA, strand 1 printed ArCrArUrCG: ribonucleotides at 2-5, deoxy A1 and G6; strand 2 all DNA) RNA: ACAUCG DNA: CGATGT",binding result,binds

# From article PMC6097844
